According to publication PMC6308133:

Biological target: yeast Nsp1p FG-fragment Nsp1p-12FF (residues 262-492; 1xFG, 11xFSFG) (yeast) (UniProt P14907)
Experiment: plasmonic nanopore sensing (shift of the extinction dip); cNsp1 grafted to the interior silicon nitride walls of smaller nanopores (upper diameter 80-90 nm, lower 50-60 nm); Kapβ1 added in increasing concentrations in PBS; equilibrium dip shift averaged over ~10 min; fit to a two component Langmuir isotherm

K1 (two component Langmuir isotherm, configuration 1): 341 nM
K2 (two component Langmuir isotherm, configuration 2): 3.8 µM
Substance: karyopherinβ1 (from UniProt Q14974 1-876) (natural protein)
